Experimental data from patent US20120148575A1 (published 2012).

Molecular target: Control
Assay: SPR

B1: muFcgRIV (receptor)
chain: GLQKAVVNLDPKWVRVLEEDSVTLRCQGTFSPEDNSIKWFHNESLIPHQDANYVIQSARVKDSGMYRCQTALSTISDPVQLEVHMGWLLLQTTKWLFQEGDPIHLRCHSWQNRPVRKVTYLQNGKGKKYFHENSELLIPKATHNDSGSYFCRGLIGHNNKSSASFRISLGDPGSPSMFPPWHQ
  Kd: 329 nM
